167 variants from the Human Domainome abundance scans (Beltran et al. 2025) can be followed below.

To fix the notation:
B1: Chromodomain-helicase-DNA-binding protein 4, residues 623 to 675; numbered along this chain, Q14839 (parent)
chain: MIHRILNHSVDKKGHVHYLIKWRDLPYDQASWESEDVEIQDYDLFKQSYWNHR

± gives the uncertainty stated by the source.

This data set covers variants of B1. Description: abundance fitness (aPCA) (normalised: wild type 0, dead -1); higher = more abundant; growth selection in yeast, the domain comes from the species named. The conditions noted are these: Homo sapiens.
N7K: the abundance fitness is -0.07 ± 0.14.

Regarding N7M, the abundance fitness is -0.529 ± 0.12.

With N7C, the abundance fitness is -0.45 ± 0.11.

Regarding N7P, the abundance fitness was -0.884 ± 0.098.

N7F: the abundance fitness is -0.568 ± 0.089.

As to N7L, the abundance fitness was -0.438 ± 0.076.

On to N7E, for which the abundance fitness is -0.317 ± 0.17.

For the variant N7V, the abundance fitness is -0.724 ± 0.11.

In the case of K21W, the abundance fitness is -0.201 ± 0.1.

Turning to K21P, the abundance fitness is -0.855 ± 0.14.

For the variant K21A, the abundance fitness is -0.01 ± 0.098.

On to K21S, for which the abundance fitness was -0.406 ± 0.095.

As for K21V, the abundance fitness was -0.463 ± 0.1.

On to K21L, for which the abundance fitness is -0.204 ± 0.089.

With K21I, the abundance fitness was -0.581 ± 0.16.

Consider K21H, for which the abundance fitness is -0.008 ± 0.12.

K21C: the abundance fitness is -0.424 ± 0.14.

In the case of K21G, the abundance fitness is -0.656 ± 0.13.

As to K21N, the abundance fitness was -0.561 ± 0.19.

As for K21F, the abundance fitness is -0.537 ± 0.15.

For K21D, the abundance fitness was -0.818 ± 0.19.

As to K21T, the abundance fitness is -0.949 ± 0.17.

In the case of K21Y, the abundance fitness is -0.349 ± 0.14.

As for K21Q, the abundance fitness is -0.106 ± 0.13.

Turning to R23E, the abundance fitness was -0.279 ± 0.16.

In the case of R23D, the abundance fitness was -0.591 ± 0.18.

R23C: the abundance fitness is -0.294 ± 0.11.

With R23A, the abundance fitness was -0.207 ± 0.11.

Regarding L6D, the abundance fitness was -0.907 ± 0.15.

As to L6V, the abundance fitness was -0.231 ± 0.089.

Take L6I: the abundance fitness is -0.046 ± 0.087.

In the case of L6A, the abundance fitness is -0.79 ± 0.12.

As for L6M, the abundance fitness is -0.542 ± 0.17.

As for L6Q, the abundance fitness is -0.6 ± 0.17.

Regarding L6W, the abundance fitness was -1.07 ± 0.2.

L6P: the abundance fitness was -0.695 ± 0.11.

As for L6H, the abundance fitness is -0.76 ± 0.11.

As to L6Y, the abundance fitness is -0.735 ± 0.12.

On to L6T, for which the abundance fitness is -0.75 ± 0.1.

With L6R, the abundance fitness is -0.805 ± 0.11.

Consider L6F, for which the abundance fitness was -0.73 ± 0.12.

Turning to L6S, the abundance fitness was -0.824 ± 0.096.

With L6N, the abundance fitness was -0.804 ± 0.12.

As for L6K, the abundance fitness was -0.918 ± 0.26.

L6C: the abundance fitness is -0.333 ± 0.11.

G14N: the abundance fitness is -0.451 ± 0.084.

Turning to G14Q, the abundance fitness was -0.714 ± 0.16.

As to G14R, the abundance fitness was -0.761 ± 0.1.

Regarding G14D, the abundance fitness is -0.727 ± 0.11.

In the case of G14F, the abundance fitness was -0.716 ± 0.11.

Consider G14Y, for which the abundance fitness is -0.634 ± 0.093.

As to G14K, the abundance fitness is -0.404 ± 0.21.

As for G14W, the abundance fitness was -0.726 ± 0.18.

G14A: the abundance fitness was -0.919 ± 0.13.

Take G14H: the abundance fitness is -0.86 ± 0.1.

Turning to G14C, the abundance fitness was -0.785 ± 0.12.

Take G14P: the abundance fitness was -0.714 ± 0.11.

As for G14M, the abundance fitness is -1.05 ± 0.2.

For the variant G14I, the abundance fitness is -0.656 ± 0.12.

Regarding G14S, the abundance fitness is -0.768 ± 0.087.

As to G14E, the abundance fitness was -1.12 ± 0.28.

On to G14T, for which the abundance fitness is -1.08 ± 0.14.

In the case of K12Y, the abundance fitness is -0.184 ± 0.13.

For K12S, the abundance fitness is -0.074 ± 0.092.

Turning to K12V, the abundance fitness was -0.171 ± 0.1.

K12N: the abundance fitness was -0.073 ± 0.12.

K12F: the abundance fitness is -0.514 ± 0.13.

Take K12I: the abundance fitness is -0.136 ± 0.11.

As for K12G, the abundance fitness is -0.078 ± 0.091.

Take K12H: the abundance fitness was 0.01 ± 0.14.

In the case of K12D, the abundance fitness was -0.103 ± 0.15.

For K12M, the abundance fitness was 0 ± 0.13.

Regarding K12E, the abundance fitness is -0.158 ± 0.2.

Consider K12R, for which the abundance fitness is -0.246 ± 0.12.

Consider K12A, for which the abundance fitness was -0.01 ± 0.1.

With K12L, the abundance fitness was -0.239 ± 0.099.

On to K12Q, for which the abundance fitness was -0.084 ± 0.25.

For the variant K12W, the abundance fitness is -0.19 ± 0.15.

For the variant K12P, the abundance fitness is -0.083 ± 0.14.

In the case of S9M, the abundance fitness was -0.105 ± 0.12.

In the case of S9P, the abundance fitness is -0.766 ± 0.15.

S9A: the abundance fitness was -0.398 ± 0.16.

Consider S9W, for which the abundance fitness was -0.198 ± 0.1.

Consider S9L, for which the abundance fitness is -0.158 ± 0.092.

Take S9H: the abundance fitness was -0.066 ± 0.11.

As for S9N, the abundance fitness was -0.484 ± 0.14.

As to S9G, the abundance fitness is -0.553 ± 0.098.

For the variant S9V, the abundance fitness was -0.407 ± 0.11.

Regarding S9C, the abundance fitness is -0.062 ± 0.11.

For S9Q, the abundance fitness is -0.095 ± 0.12.

With S9K, the abundance fitness turned out to be 0.139 ± 0.095.

With S9T, the abundance fitness is -0.068 ± 0.096.

On to S9F, for which the abundance fitness is -0.127 ± 0.1.

Take S9R: the abundance fitness worked out at 0.156 ± 0.076.

Regarding S9E, the abundance fitness is -0.112 ± 0.14.

For the variant S9I, the abundance fitness was -0.021 ± 0.11.

For S9Y, the abundance fitness was -0.177 ± 0.11.

Turning to S9D, the abundance fitness was -0.341 ± 0.14.

Y18S: the abundance fitness is -0.681 ± 0.12.

Consider Y18H, for which the abundance fitness was -0.736 ± 0.2.

Regarding Y18L, the abundance fitness was -0.86 ± 0.11.

As for Y18V, the abundance fitness is -0.753 ± 0.11.

Regarding Y18M, the abundance fitness is -0.957 ± 0.19.

Regarding Y18K, the abundance fitness is -0.838 ± 0.17.

As to Y18W, the abundance fitness is -0.787 ± 0.17.

Take Y18C: the abundance fitness was -0.59 ± 0.18.

As for Y18P, the abundance fitness was -0.833 ± 0.14.

Y18A: the abundance fitness was -0.688 ± 0.11.

Turning to Y18Q, the abundance fitness was -0.962 ± 0.2.

On to Y18G, for which the abundance fitness was -0.798 ± 0.14.

For the variant Y18F, the abundance fitness was -0.43 ± 0.15.

Take Y18D: the abundance fitness was -0.963 ± 0.17.

As to Y18R, the abundance fitness was -1.05 ± 0.14.

With Y18N, the abundance fitness is -0.754 ± 0.18.

As to H3Y, the abundance fitness was -0.16 ± 0.13.

For the variant H3V, the abundance fitness is -0.629 ± 0.12.

Take H3W: the abundance fitness was -0.245 ± 0.12.

On to V16P, for which the abundance fitness was -0.59 ± 0.16.

Regarding V16A, the abundance fitness was -0.516 ± 0.12.

Take V16S: the abundance fitness is -0.745 ± 0.13.

Consider V16L, for which the abundance fitness is -0.11 ± 0.093.

Take V16F: the abundance fitness was -0.382 ± 0.16.

V16M: the abundance fitness is -0.053 ± 0.11.

Take V16H: the abundance fitness is -0.288 ± 0.16.

As for V16I, the abundance fitness is -0.059 ± 0.11.

On to V16K, for which the abundance fitness was -0.088 ± 0.12.

As to V16R, the abundance fitness is -0.309 ± 0.14.

As for V16C, the abundance fitness is -0.22 ± 0.17.

On to V16Y, for which the abundance fitness is -0.016 ± 0.17.

Regarding V16T, the abundance fitness was -0.059 ± 0.1.

As to V16W, the abundance fitness was -0.715 ± 0.33.

With V16Q, the abundance fitness is -0.549 ± 0.16.

As for V16E, the abundance fitness was -0.545 ± 0.2.

In the case of V16G, the abundance fitness is -0.757 ± 0.15.

As to V16D, the abundance fitness was -0.611 ± 0.17.

With I20K, the abundance fitness was -0.878 ± 0.29.

Consider I20L, for which the abundance fitness was -0.622 ± 0.087.

Consider I20Q, for which the abundance fitness was -0.874 ± 0.21.

On to I20S, for which the abundance fitness is -0.778 ± 0.092.

Regarding I20C, the abundance fitness is -0.686 ± 0.14.

For I20T, the abundance fitness was -0.885 ± 0.12.

For I20R, the abundance fitness was -0.722 ± 0.092.

As for I20M, the abundance fitness was -0.612 ± 0.14.

As for I20W, the abundance fitness was -0.633 ± 0.18.

With I20V, the abundance fitness was -0.276 ± 0.088.

Regarding I20Y, the abundance fitness is -0.825 ± 0.17.

For I20N, the abundance fitness was -0.838 ± 0.15.

On to I20G, for which the abundance fitness was -0.791 ± 0.12.

Consider I20F, for which the abundance fitness is -0.946 ± 0.13.

For I20E, the abundance fitness is -0.842 ± 0.31.

I20A: the abundance fitness is -0.921 ± 0.1.

Consider H15D, for which the abundance fitness was -0.511 ± 0.14.

Regarding H15S, the abundance fitness was -0.023 ± 0.089.

As for H15Y, the abundance fitness is -0.409 ± 0.11.

As to H15R, the abundance fitness is 0.057 ± 0.079.

On to H15K, for which the abundance fitness is 0.205 ± 0.13.

For the variant H15C, the abundance fitness was -0.171 ± 0.14.

H15W: the abundance fitness is -0.631 ± 0.15.

On to H15L, for which the abundance fitness is -0.171 ± 0.089.

As to H15I, the abundance fitness amounted to 0.029 ± 0.12.

As to H15N, the abundance fitness came to 0.081 ± 0.12.

On to H15F, for which the abundance fitness is -0.344 ± 0.17.

Take H15Q: the abundance fitness is -0.021 ± 0.11.

On to H15V, for which the abundance fitness is -0.122 ± 0.088.

Regarding H15E, the abundance fitness was -0.123 ± 0.13.

As to H15M, the abundance fitness was -0.134 ± 0.1.

Turning to H15A, the abundance fitness was -0.126 ± 0.087.
